Experimental data taken from patent publication US20250218531A1 (ABSCI, published 2025).

B1: Trastuzumab HCDR3 variant ARWEGYGSYEFAY (Fab, V domains shown)
VH: EVQLVESGGGLVQPGGSLRLSCAASGFNIKDTYIHWVRQAPGKGLEWVARIYPTNGYTRYADSVKGRFTISADTSKNTAYLQMNSLRAEDTAVYYCARWEGYGSYEFAYWGQGTLVTVSS
VL: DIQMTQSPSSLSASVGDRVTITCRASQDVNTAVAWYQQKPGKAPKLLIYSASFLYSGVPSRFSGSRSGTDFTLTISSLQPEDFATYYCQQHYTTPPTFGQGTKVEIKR
B2: Trastuzumab HCDR3 variant ARWEQASVGSFGY (Fab, V domains shown)
VH: EVQLVESGGGLVQPGGSLRLSCAASGFNIKDTYIHWVRQAPGKGLEWVARIYPTNGYTRYADSVKGRFTISADTSKNTAYLQMNSLRAEDTAVYYCARWEQASVGSFGYWGQGTLVTVSS
VL: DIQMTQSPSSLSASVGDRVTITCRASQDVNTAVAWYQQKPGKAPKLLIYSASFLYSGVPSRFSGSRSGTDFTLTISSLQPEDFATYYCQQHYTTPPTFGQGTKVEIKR
B3: Trastuzumab HCDR3 variant ARWERYGYYVLDV (Fab, V domains shown)
VH: EVQLVESGGGLVQPGGSLRLSCAASGFNIKDTYIHWVRQAPGKGLEWVARIYPTNGYTRYADSVKGRFTISADTSKNTAYLQMNSLRAEDTAVYYCARWERYGYYVLDVWGQGTLVTVSS
VL: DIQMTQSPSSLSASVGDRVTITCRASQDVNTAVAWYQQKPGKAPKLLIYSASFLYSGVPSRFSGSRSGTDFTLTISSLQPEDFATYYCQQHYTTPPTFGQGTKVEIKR
B4: Trastuzumab HCDR3 variant ARWGGFGYYYFDY (Fab, V domains shown)
VH: EVQLVESGGGLVQPGGSLRLSCAASGFNIKDTYIHWVRQAPGKGLEWVARIYPTNGYTRYADSVKGRFTISADTSKNTAYLQMNSLRAEDTAVYYCARWGGFGYYYFDYWGQGTLVTVSS
VL: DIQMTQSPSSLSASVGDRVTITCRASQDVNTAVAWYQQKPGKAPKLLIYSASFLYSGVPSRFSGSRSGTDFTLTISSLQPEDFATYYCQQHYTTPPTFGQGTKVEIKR
B5: Trastuzumab HCDR3 variant ARWGSEAFYWFDY (Fab, V domains shown)
VH: EVQLVESGGGLVQPGGSLRLSCAASGFNIKDTYIHWVRQAPGKGLEWVARIYPTNGYTRYADSVKGRFTISADTSKNTAYLQMNSLRAEDTAVYYCARWGSEAFYWFDYWGQGTLVTVSS
VL: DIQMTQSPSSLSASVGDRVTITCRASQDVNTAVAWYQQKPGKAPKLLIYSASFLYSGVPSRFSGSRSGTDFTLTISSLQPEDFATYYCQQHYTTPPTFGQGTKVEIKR
B6: Trastuzumab HCDR3 variant ARWGSYGYYYFDY (Fab, V domains shown)
VH: EVQLVESGGGLVQPGGSLRLSCAASGFNIKDTYIHWVRQAPGKGLEWVARIYPTNGYTRYADSVKGRFTISADTSKNTAYLQMNSLRAEDTAVYYCARWGSYGYYYFDYWGQGTLVTVSS
VL: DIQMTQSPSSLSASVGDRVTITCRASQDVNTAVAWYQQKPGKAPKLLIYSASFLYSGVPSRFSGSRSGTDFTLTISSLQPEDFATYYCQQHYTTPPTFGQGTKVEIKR
B7: Trastuzumab HCDR3 variant ARWGTYTYGYFDY (Fab, V domains shown)
VH: EVQLVESGGGLVQPGGSLRLSCAASGFNIKDTYIHWVRQAPGKGLEWVARIYPTNGYTRYADSVKGRFTISADTSKNTAYLQMNSLRAEDTAVYYCARWGTYTYGYFDYWGQGTLVTVSS
VL: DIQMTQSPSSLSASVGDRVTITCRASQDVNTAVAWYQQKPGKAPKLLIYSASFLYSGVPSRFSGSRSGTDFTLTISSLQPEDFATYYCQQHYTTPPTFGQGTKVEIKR
B8: Trastuzumab HCDR3 variant ARWGYGYYYSFDY (Fab, V domains shown)
VH: EVQLVESGGGLVQPGGSLRLSCAASGFNIKDTYIHWVRQAPGKGLEWVARIYPTNGYTRYADSVKGRFTISADTSKNTAYLQMNSLRAEDTAVYYCARWGYGYYYSFDYWGQGTLVTVSS
VL: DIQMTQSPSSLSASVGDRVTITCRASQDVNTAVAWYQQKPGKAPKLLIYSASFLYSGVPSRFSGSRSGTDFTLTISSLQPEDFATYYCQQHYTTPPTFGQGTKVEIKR
B9: Trastuzumab HCDR3 variant ARWLRGLGYYWDY (Fab, V domains shown)
VH: EVQLVESGGGLVQPGGSLRLSCAASGFNIKDTYIHWVRQAPGKGLEWVARIYPTNGYTRYADSVKGRFTISADTSKNTAYLQMNSLRAEDTAVYYCARWLRGLGYYWDYWGQGTLVTVSS
VL: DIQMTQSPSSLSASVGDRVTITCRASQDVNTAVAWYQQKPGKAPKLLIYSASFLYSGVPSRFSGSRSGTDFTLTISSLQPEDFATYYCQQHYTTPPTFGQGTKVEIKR
B10: Trastuzumab HCDR3 variant ARWPPYYWWAFDY (Fab, V domains shown)
VH: EVQLVESGGGLVQPGGSLRLSCAASGFNIKDTYIHWVRQAPGKGLEWVARIYPTNGYTRYADSVKGRFTISADTSKNTAYLQMNSLRAEDTAVYYCARWPPYYWWAFDYWGQGTLVTVSS
VL: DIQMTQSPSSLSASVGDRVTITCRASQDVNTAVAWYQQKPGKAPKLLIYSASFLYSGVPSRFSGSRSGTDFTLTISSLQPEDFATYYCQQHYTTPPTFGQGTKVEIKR
B11: Trastuzumab HCDR3 variant ARWQGRSGYYMDY (Fab, V domains shown)
VH: EVQLVESGGGLVQPGGSLRLSCAASGFNIKDTYIHWVRQAPGKGLEWVARIYPTNGYTRYADSVKGRFTISADTSKNTAYLQMNSLRAEDTAVYYCARWQGRSGYYMDYWGQGTLVTVSS
VL: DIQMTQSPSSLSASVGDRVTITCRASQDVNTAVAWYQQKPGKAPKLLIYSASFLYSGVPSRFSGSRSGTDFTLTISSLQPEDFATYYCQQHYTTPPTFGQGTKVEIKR
B12: Trastuzumab HCDR3 variant ARWRYGGAYQFAL (Fab, V domains shown)
VH: EVQLVESGGGLVQPGGSLRLSCAASGFNIKDTYIHWVRQAPGKGLEWVARIYPTNGYTRYADSVKGRFTISADTSKNTAYLQMNSLRAEDTAVYYCARWRYGGAYQFALWGQGTLVTVSS
VL: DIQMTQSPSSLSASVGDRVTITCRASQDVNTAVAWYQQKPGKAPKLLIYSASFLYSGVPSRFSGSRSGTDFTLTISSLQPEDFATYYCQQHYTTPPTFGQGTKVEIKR
B13: Trastuzumab HCDR3 variant ARWVSGARYYMDV (Fab, V domains shown)
VH: EVQLVESGGGLVQPGGSLRLSCAASGFNIKDTYIHWVRQAPGKGLEWVARIYPTNGYTRYADSVKGRFTISADTSKNTAYLQMNSLRAEDTAVYYCARWVSGARYYMDVWGQGTLVTVSS
VL: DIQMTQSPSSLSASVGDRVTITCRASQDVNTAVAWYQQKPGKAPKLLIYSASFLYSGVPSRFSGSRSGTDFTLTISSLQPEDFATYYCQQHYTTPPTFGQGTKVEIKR
B14: Trastuzumab HCDR3 variant ARWWTPANYPFLY (Fab, V domains shown)
VH: EVQLVESGGGLVQPGGSLRLSCAASGFNIKDTYIHWVRQAPGKGLEWVARIYPTNGYTRYADSVKGRFTISADTSKNTAYLQMNSLRAEDTAVYYCARWWTPANYPFLYWGQGTLVTVSS
VL: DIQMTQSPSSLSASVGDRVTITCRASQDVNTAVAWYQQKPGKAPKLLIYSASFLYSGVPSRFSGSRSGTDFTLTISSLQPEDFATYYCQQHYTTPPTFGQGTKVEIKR
B15: Trastuzumab HCDR3 variant ARWWYGGRNYFDI (Fab, V domains shown)
VH: EVQLVESGGGLVQPGGSLRLSCAASGFNIKDTYIHWVRQAPGKGLEWVARIYPTNGYTRYADSVKGRFTISADTSKNTAYLQMNSLRAEDTAVYYCARWWYGGRNYFDIWGQGTLVTVSS
VL: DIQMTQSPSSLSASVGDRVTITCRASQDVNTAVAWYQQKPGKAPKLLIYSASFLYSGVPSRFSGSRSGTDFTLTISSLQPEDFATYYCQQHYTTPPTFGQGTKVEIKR
B16: Trastuzumab HCDR3 variant ARWYGLGSYGLTY (Fab, V domains shown)
VH: EVQLVESGGGLVQPGGSLRLSCAASGFNIKDTYIHWVRQAPGKGLEWVARIYPTNGYTRYADSVKGRFTISADTSKNTAYLQMNSLRAEDTAVYYCARWYGLGSYGLTYWGQGTLVTVSS
VL: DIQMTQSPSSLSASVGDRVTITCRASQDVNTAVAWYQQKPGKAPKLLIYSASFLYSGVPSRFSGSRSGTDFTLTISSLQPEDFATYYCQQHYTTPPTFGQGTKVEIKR
B17: Trastuzumab HCDR3 variant ARYDYYGYYYFDY (Fab, V domains shown)
VH: EVQLVESGGGLVQPGGSLRLSCAASGFNIKDTYIHWVRQAPGKGLEWVARIYPTNGYTRYADSVKGRFTISADTSKNTAYLQMNSLRAEDTAVYYCARYDYYGYYYFDYWGQGTLVTVSS
VL: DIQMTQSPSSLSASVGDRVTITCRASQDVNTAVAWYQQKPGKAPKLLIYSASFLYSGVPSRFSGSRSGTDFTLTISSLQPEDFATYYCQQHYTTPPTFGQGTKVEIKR
B18: Trastuzumab HCDR3 variant ARYFYDHYYYFDV (Fab, V domains shown)
VH: EVQLVESGGGLVQPGGSLRLSCAASGFNIKDTYIHWVRQAPGKGLEWVARIYPTNGYTRYADSVKGRFTISADTSKNTAYLQMNSLRAEDTAVYYCARYFYDHYYYFDVWGQGTLVTVSS
VL: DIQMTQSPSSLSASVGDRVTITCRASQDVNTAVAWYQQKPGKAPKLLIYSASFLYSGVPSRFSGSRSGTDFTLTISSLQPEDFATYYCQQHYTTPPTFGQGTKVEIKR
B19: Trastuzumab HCDR3 variant ARYGARSGYAYEY (Fab, V domains shown)
VH: EVQLVESGGGLVQPGGSLRLSCAASGFNIKDTYIHWVRQAPGKGLEWVARIYPTNGYTRYADSVKGRFTISADTSKNTAYLQMNSLRAEDTAVYYCARYGARSGYAYEYWGQGTLVTVSS
VL: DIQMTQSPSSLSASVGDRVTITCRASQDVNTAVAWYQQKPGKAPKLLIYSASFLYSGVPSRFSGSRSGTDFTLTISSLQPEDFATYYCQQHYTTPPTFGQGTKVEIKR
B20: Trastuzumab HCDR3 variant ARYGAYSSYYFGY (Fab, V domains shown)
VH: EVQLVESGGGLVQPGGSLRLSCAASGFNIKDTYIHWVRQAPGKGLEWVARIYPTNGYTRYADSVKGRFTISADTSKNTAYLQMNSLRAEDTAVYYCARYGAYSSYYFGYWGQGTLVTVSS
VL: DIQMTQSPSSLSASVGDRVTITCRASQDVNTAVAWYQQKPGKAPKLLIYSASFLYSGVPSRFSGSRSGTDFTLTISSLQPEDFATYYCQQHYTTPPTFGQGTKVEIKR
B21: Trastuzumab HCDR3 variant ARYGDADFYAFDP (Fab, V domains shown)
VH: EVQLVESGGGLVQPGGSLRLSCAASGFNIKDTYIHWVRQAPGKGLEWVARIYPTNGYTRYADSVKGRFTISADTSKNTAYLQMNSLRAEDTAVYYCARYGDADFYAFDPWGQGTLVTVSS
VL: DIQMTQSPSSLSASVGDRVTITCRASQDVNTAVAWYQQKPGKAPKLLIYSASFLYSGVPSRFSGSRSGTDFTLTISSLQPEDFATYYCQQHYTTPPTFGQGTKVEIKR
B22: Trastuzumab HCDR3 variant ARYGDAFIMSFGV (Fab, V domains shown)
VH: EVQLVESGGGLVQPGGSLRLSCAASGFNIKDTYIHWVRQAPGKGLEWVARIYPTNGYTRYADSVKGRFTISADTSKNTAYLQMNSLRAEDTAVYYCARYGDAFIMSFGVWGQGTLVTVSS
VL: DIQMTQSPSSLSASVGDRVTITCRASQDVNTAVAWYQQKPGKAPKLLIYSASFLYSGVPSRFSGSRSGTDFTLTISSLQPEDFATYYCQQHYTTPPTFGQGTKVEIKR
B23: Trastuzumab HCDR3 variant ARYGDGTYYFFAH (Fab, V domains shown)
VH: EVQLVESGGGLVQPGGSLRLSCAASGFNIKDTYIHWVRQAPGKGLEWVARIYPTNGYTRYADSVKGRFTISADTSKNTAYLQMNSLRAEDTAVYYCARYGDGTYYFFAHWGQGTLVTVSS
VL: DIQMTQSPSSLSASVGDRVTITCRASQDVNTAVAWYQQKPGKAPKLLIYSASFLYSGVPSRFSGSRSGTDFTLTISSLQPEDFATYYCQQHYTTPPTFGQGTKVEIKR
B24: Trastuzumab HCDR3 variant ARYGDSYYYYFDY (Fab, V domains shown)
VH: EVQLVESGGGLVQPGGSLRLSCAASGFNIKDTYIHWVRQAPGKGLEWVARIYPTNGYTRYADSVKGRFTISADTSKNTAYLQMNSLRAEDTAVYYCARYGDSYYYYFDYWGQGTLVTVSS
VL: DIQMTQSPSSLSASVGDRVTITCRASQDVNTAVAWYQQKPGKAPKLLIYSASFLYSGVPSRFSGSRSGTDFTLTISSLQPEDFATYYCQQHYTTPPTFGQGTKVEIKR
B25: Trastuzumab HCDR3 variant ARYGGGYYYYFDV (Fab, V domains shown)
VH: EVQLVESGGGLVQPGGSLRLSCAASGFNIKDTYIHWVRQAPGKGLEWVARIYPTNGYTRYADSVKGRFTISADTSKNTAYLQMNSLRAEDTAVYYCARYGGGYYYYFDVWGQGTLVTVSS
VL: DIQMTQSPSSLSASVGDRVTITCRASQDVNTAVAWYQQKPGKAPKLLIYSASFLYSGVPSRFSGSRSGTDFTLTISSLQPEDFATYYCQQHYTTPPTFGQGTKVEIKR
B26: Trastuzumab HCDR3 variant ARYGGLGGYTLAY (Fab, V domains shown)
VH: EVQLVESGGGLVQPGGSLRLSCAASGFNIKDTYIHWVRQAPGKGLEWVARIYPTNGYTRYADSVKGRFTISADTSKNTAYLQMNSLRAEDTAVYYCARYGGLGGYTLAYWGQGTLVTVSS
VL: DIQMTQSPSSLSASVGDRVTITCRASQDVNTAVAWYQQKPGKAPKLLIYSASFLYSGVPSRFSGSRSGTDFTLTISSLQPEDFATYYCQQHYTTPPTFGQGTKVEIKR
B27: Trastuzumab HCDR3 variant ARYGGLSYYSFDL (Fab, V domains shown)
VH: EVQLVESGGGLVQPGGSLRLSCAASGFNIKDTYIHWVRQAPGKGLEWVARIYPTNGYTRYADSVKGRFTISADTSKNTAYLQMNSLRAEDTAVYYCARYGGLSYYSFDLWGQGTLVTVSS
VL: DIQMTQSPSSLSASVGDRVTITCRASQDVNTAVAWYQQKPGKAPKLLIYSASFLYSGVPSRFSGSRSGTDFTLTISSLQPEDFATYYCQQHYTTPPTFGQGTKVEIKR
B28: Trastuzumab HCDR3 variant ARYGGYGNYWFDT (Fab, V domains shown)
VH: EVQLVESGGGLVQPGGSLRLSCAASGFNIKDTYIHWVRQAPGKGLEWVARIYPTNGYTRYADSVKGRFTISADTSKNTAYLQMNSLRAEDTAVYYCARYGGYGNYWFDTWGQGTLVTVSS
VL: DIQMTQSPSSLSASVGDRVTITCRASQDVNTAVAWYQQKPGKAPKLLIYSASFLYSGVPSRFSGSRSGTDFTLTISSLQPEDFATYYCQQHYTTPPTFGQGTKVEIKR
B29: Trastuzumab HCDR3 variant ARYGGYGYYWFDY (Fab, V domains shown)
VH: EVQLVESGGGLVQPGGSLRLSCAASGFNIKDTYIHWVRQAPGKGLEWVARIYPTNGYTRYADSVKGRFTISADTSKNTAYLQMNSLRAEDTAVYYCARYGGYGYYWFDYWGQGTLVTVSS
VL: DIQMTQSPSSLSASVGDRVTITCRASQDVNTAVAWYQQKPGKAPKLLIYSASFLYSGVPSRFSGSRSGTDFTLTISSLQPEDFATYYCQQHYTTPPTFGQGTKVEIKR
B30: Trastuzumab HCDR3 variant ARYGLNHYYVYPY (Fab, V domains shown)
VH: EVQLVESGGGLVQPGGSLRLSCAASGFNIKDTYIHWVRQAPGKGLEWVARIYPTNGYTRYADSVKGRFTISADTSKNTAYLQMNSLRAEDTAVYYCARYGLNHYYVYPYWGQGTLVTVSS
VL: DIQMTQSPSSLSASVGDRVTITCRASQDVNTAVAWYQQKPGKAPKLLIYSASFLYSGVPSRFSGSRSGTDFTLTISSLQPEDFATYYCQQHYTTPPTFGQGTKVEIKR
B31: Trastuzumab HCDR3 variant ARYGLYGSYYFRY (Fab, V domains shown)
VH: EVQLVESGGGLVQPGGSLRLSCAASGFNIKDTYIHWVRQAPGKGLEWVARIYPTNGYTRYADSVKGRFTISADTSKNTAYLQMNSLRAEDTAVYYCARYGLYGSYYFRYWGQGTLVTVSS
VL: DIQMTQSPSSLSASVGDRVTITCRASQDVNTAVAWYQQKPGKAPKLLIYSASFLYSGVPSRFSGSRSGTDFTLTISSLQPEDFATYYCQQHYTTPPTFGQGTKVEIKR

target: human epidermal growth factor receptor 2 (HER2) extracellular domain (human, UniProt P04626 23-629); experiment: SPR

B1 was tested, and the Kd was 42.5 nM.
Binder B2 has a Kd of 226 nM.
For B5, the Kd was 32.8 nM.
In the case of B7, the Kd is reported as 88.1 nM.
For B8, the Kd was 38 nM.
Binder B9 has a Kd of 40.1 nM.
For B10, the Kd was 65.6 nM.
Binder B11 has a Kd of 48.3 nM.
Binder B12 has a Kd of 231 nM.
In the case of B15, the Kd is reported as 116 nM.
In the case of B16, the Kd is reported as 223 nM.
B17 gave a Kd of 99 nM.
With B18 the Kd was 29.7 nM.
With B20 the Kd was 28 nM.
For B21, the Kd was 35.8 nM.
B26 gave a Kd of 42.9 nM.
With B28 the Kd was 42.1 nM.
B30 showed a Kd of 135 nM.

In order of rising “log(KD (M))” value:
1. B3  -7.55 log(M)
2. B20  -7.55 log(M)
3. B18  -7.53 log(M)
4. B4  -7.51 log(M)
5. B6  -7.51 log(M)
6. B25  -7.5 log(M)
7. B5  -7.48 log(M)
8. B13  -7.47 log(M)
9. B21  -7.45 log(M)
10. B8  -7.42 log(M)
11. B9  -7.4 log(M)
12. B29  -7.4 log(M)
13. B24  -7.39 log(M)
14. B28  -7.38 log(M)
15. B1  -7.37 log(M)
16. B26  -7.37 log(M)
17. B19  -7.35 log(M)
18. B11  -7.32 log(M)
19. B27  -7.24 log(M)
20. B10  -7.18 log(M)
21. B22  -7.17 log(M)
22. B31  -7.14 log(M)
23. B7  -7.05 log(M)
24. B23  -7.01 log(M)
25. B17  -7 log(M)
26. B15  -6.94 log(M)
27. B14  -6.88 log(M)
28. B30  -6.87 log(M)
29. B2  -6.65 log(M)
30. B16  -6.65 log(M)
31. B12  -6.64 log(M)

In order of rising Kd:
1. B3  27.9 nM
2. B6  30.9 nM
3. B4  31 nM
4. B25  31.4 nM
5. B13  33.8 nM
6. B29  40 nM
7. B24  40.6 nM
8. B19  45.1 nM
9. B27  58.1 nM
10. B22  67.4 nM
11. B31  71.8 nM
12. B23  97.3 nM
13. B14  133 nM
